{"source": "paper PMC1894825", "about": "“Transcriptional Regulation of Multi-Drug Tolerance and Antibiotic-Induced Responses by the Histone-Like Protein Lsr2 in M. tuberculosis” (PLoS Pathogens, 2007)", "biological_target": "the molecule itself", "assay": "cross-linking"}
{"protein": "recombinant Lsr2 (M. tuberculosis, Rv3597c) (natural protein, also called rLsr2; not shown: His6, N-terminal, kept) not shown", "values": [{"measurement": "binding result", "value": "binds"}]}
